This assay concerns the target Saccharomyces cerevisiae alcohol dehydrogenase (Saccharomyces cerevisiae) (UniProt P00330). The assay is described as follows: SEC + native MS.

For orientation: stoichiometry N means the number of molecules, sites or subunits per partner or assembly.

With “Saccharomyces cerevisiae alcohol dehydrogenase (from UniProt P00330 1-348) (enzyme)”, the stoichiometry N was found to be 4.
